From article PMC9770967, “Native holdup (nHU) to measure binding affinities from cell extracts” (Science Advances, 2022)

Target: biotinylated PDZ-binding motif (PBM) peptide of diacylglycerol kinase zeta (DGKZ)
Assay: native holdup (nHU) with Western blot; titration; biotinylated DGKZ PBM peptide on streptavidin resin as bait, mixed with biotin-saturated control resin at constant resin/analyte ratio; total Jurkat extract (2 mg/ml) as analyte; 4°C, 2 hours; prey depletion in the supernatant read by Western blot; apparent constants; three replicates

**Q.** With “endogenous full-length Scribble (SCRIB) (from UniProt Q14160 1-1655) (natural protein)” as the substance, how does the pKapp (negative logarithm of the apparent dissociation constant) read?
**A.** Its pKapp (negative logarithm of the apparent dissociation constant) is 6.4 pKapp.
